For one molecule, ECL signal results are on record in patent publication US20110318339A1 (FABRUS, published 2011).

Assay [1] deals with T1, Recombinant Human DLL4 (Cat# 1506-D4/CF) (human, UniProt Q9NR61 27-529).
T1 construct: Bought from R&D Systems; also called rHuman DLL4; hDLL4
Description: Multispot ECL; Fab 8.1 nM. As to the method:
(§1) An 150 μl aliquot of 1% Bovine Serum Albumin (BSA) in Tris-buffered Saline Tween (TBST) was added to each well and allowed to incubate for 30 min at 20° C. followed by washing and tap drying to completely remove any residual solution. Subsequently, a 12.5 μl aliquot of 1% BSA TBST was added to each well followed by the addition of a 12.5 μl aliquot of a purified Fab. The plate was sealed and incubated for 1 hour at 20° C. with shaking.
(§2) Detection antibodies were prepared by individually conjugating both goat anti-human Kappa light chain polyclonal antibody (K3502-1MG, Sigma-Aldrich) and goat anti-human Lambda light chain polyclonal antibody (L1645-1 mL, Sigma-Aldrich) with Ruthenium (II) tris-bipyridine-(4-methylsulfone)-N-hydroxysuccinimide (SULFO-TAG NHS-ester, Meso Scale Discovery) according to the manufacturer's instructions. TAG-detection antibody at 25 μl was added to each well and allowed to incubate for 1 hour at 20° C. with shaking. Finally, 15 μl of Read Buffer P with Surfactant (Cat # R92PC-1, Meso Scale Discovery) was added to each well. The electrochemiluminescence was measured using a Sector Imager 2400 (Meso Scale Discovery). Data was analyzed by comparing the ECL signals for an antigen to the blank of each well. A signal to blank ratio of 4 or more was considered a “Hit” Fab.
(§3) To confirm a “Hit” from the initial Multispot ECL screening, a Fab concentration dependent titration was carried out to determine the Fab-antigen binding affinity.

Assay [2] deals with T2, rHuman Erythropoietin R/Fc Chimera, CF (Cat# 963-ER) (human, UniProt P19235 25-250).
T2 construct: Bought from R&D Systems; also called EPO R/Fc; Epo R/Fc chimera
T2 sequence (looked up): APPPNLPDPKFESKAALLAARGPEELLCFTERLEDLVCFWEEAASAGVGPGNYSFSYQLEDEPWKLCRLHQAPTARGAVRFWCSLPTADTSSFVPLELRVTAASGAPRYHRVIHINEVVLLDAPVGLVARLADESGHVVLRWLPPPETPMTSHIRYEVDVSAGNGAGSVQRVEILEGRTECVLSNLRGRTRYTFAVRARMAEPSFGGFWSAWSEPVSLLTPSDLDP
In words: Multispot ECL; Fab 8.1 nM. As to the method:
as §1, §2, §3

Assay [3] deals with T3, rHuman EGF R/Fc Chimera, CF (Cat# 344-ER) (human, UniProt P00533 25-645).
T3 construct: Bought from R&D Systems; also called epidermal growth factor receptor (EGF R)
In words: Multispot ECL; Fab 8.1 nM. As to the method: as §1, §2, §3

In assay [4] the target is T4, rHuman CD44/Fc Chimera, CF (Cat# 3660-CD) (human, UniProt P16070 21-220).
T4 construct: Bought from R&D Systems
Description: Multispot ECL; Fab 8.1 nM. As to the method:
as §1, §2, §3

The target in assay [5] is T5, rHuman IGF-1 sR, (IGF-1 sR), CF (Cat# 391-GR) (human, UniProt P08069 31-932).
T5 construct: Bought from R&D Systems; also called insulin-like growth factor-1 soluble receptor
In words: Multispot ECL; Fab 8.1 nM. As to the method:
as §1, §2, §3

The target of assay [6] is T6, rHuman ErbB2/Fc Chimera, CF (Cat# 1129-ER) (human, UniProt P04626 23-652).
T6 construct: Bought from R&D Systems; also called human epidermal growth factor 2 receptor (ErbB2)
Description: Multispot ECL; Fab 8.1 nM. As to the method: as §1, §2, §3

The target of assay [7] is T7, rHuman HGF R/c-MET/Fc Chimera, CF (Cat# 358-MT/CF) (human, UniProt P08581 25-932).
T7 construct: Bought from R&D Systems; also called HGF R/Fc; hepatocyte growth factor receptor (HGF R/c-Met)
Description: Multispot ECL; Fab 8.1 nM. As to the method:
as §1, §2, §3

The target of assay [8] is T8, rHuman Notch-1/Fc Chimera, CF (Cat# 3647-TK) (human, UniProt P46531 19-526).
T8 construct: Bought from R&D Systems
In words: Multispot ECL; Fab 8.1 nM. As to the method: as §1, §2, §3

In assay [9] the target is T1, Recombinant Human DLL4 (Cat# 1506-D4/CF). In words: Multispot ECL; Fab 32.5 nM. As to the method:
as §1, §2, §3

Assay [10] addresses T2, rHuman Erythropoietin R/Fc Chimera, CF …. In words: Multispot ECL; Fab 32.5 nM. As to the method: as §1, §2, §3
The target in assay [11] is T3, rHuman EGF R/Fc Chimera, CF (Cat# …). In words: Multispot ECL; Fab 32.5 nM. As to the method:
as §1, §2, §3

The target of assay [12] is T4, rHuman CD44/Fc Chimera, CF (Cat# …). In words: Multispot ECL; Fab 32.5 nM. As to the method: as §1, §2, §3
The target in assay [13] is T5, rHuman IGF-1 sR, (IGF-1 sR), CF (Cat# …). Description: Multispot ECL; Fab 32.5 nM. As to the method: as §1, §2, §3
Assay [14] addresses T6, rHuman ErbB2/Fc Chimera, CF (Cat# …). In words: Multispot ECL; Fab 32.5 nM. As to the method:
as §1, §2, §3

Assay [15] concerns the target T7, rHuman HGF R/c-MET/Fc Chimera, CF (Cat# …). In words: Multispot ECL; Fab 32.5 nM. As to the method: as §1, §2, §3
Assay [16] concerns the target T8, rHuman Notch-1/Fc Chimera, CF (Cat# …). In words: Multispot ECL; Fab 32.5 nM. As to the method:
as §1, §2, §3

In assay [17] the target is T1, Recombinant Human DLL4 (Cat# 1506-D4/CF). Description: Multispot ECL; Fab 2.0 nM. As to the method:
as §1, §2, §3

The target in assay [18] is T2, rHuman Erythropoietin R/Fc Chimera, CF …. Description: Multispot ECL; Fab 2.0 nM. As to the method: as §1, §2, §3
Assay [19] has as its target T3, rHuman EGF R/Fc Chimera, CF (Cat# …). In words: Multispot ECL; Fab 2.0 nM. As to the method: as §1, §2, §3

B1: Fab VH1-8_IGHD2-2*01_IGHJ6*01 & L12_IGKJ1*01 (Fab, V domains shown)
VH: QVQLVQSGAEVKKPGASVKVSCKASGYTFTSYDINWVRQATGQGLEWMGWMNPNSGNTGYAQKFQGRVTMTRNTSISTAYMELSSLRSEDTAVYYCARGGYCSSTSCYADYYYYYGMDVWGQGTTVTVSS
VL: not shown
Consider B1, for which the ECL signal came to 1550 in assay [1]; 660 in [2]; 560 in assay [3]; 528 in assay [4]; 518 in assay [5]; 557 in assay [6]. Besides, the ECL signal in assay [7] stood at 551; in assay [8], 612; in assay [9], 2990; in [10] it was 673; in assay [11], 645; in assay [12], 573. Further, the ECL signal in assay [13] is 561; in assay [14], 556; in assay [15] it was 525; in assay [16], 706; in assay [17] it was 605; in assay [18], 433. In assay [19], this molecule showed an ECL signal of 424.
